Bridge positions count the residues as written; N and C are the ends. Square brackets hold non-standard residues; d marks the D form. Trp(7-OMe) = COc1cccc2c(C[C@H](N)C(=O)O)c[nH]c12; Trp(7-Me) = Cc1cccc2c(C[C@H](N)C(=O)O)c[nH]c12; 2Nal = N[C@@H](Cc1ccc2ccccc2c1)C(=O)O; AEF = NCCOc1ccc(C[C@H](N)C(=O)O)cc1; Cit = NC(=O)NCCC[C@H](N)C(=O)O; Pen = CC(C)(S)[C@H](N)C(=O)O; αMeK = C[C@](N)(CCCCN)C(=O)O; Aib = CC(C)(N)C(=O)O; βAla = NCCC(=O)O
B1: SEQ ID NO: 322 (peptide)
peptide: XNTXXXXXXKNL
modifications: Ac-[Pen]-N-T-[W(7-Me)]-[Lys(Aib)]-[Pen]-Phe[4-(2-aminoethoxy)]-[2-Nal]-[a-MeLys]-[Lys(Ac)]-N-[(D)Leu]-NH2; Pen-Pen disulfide
B2: SEQ ID NO: 345 (peptide)
peptide: Ac-[Pen]NT[Trp(7-Me)][Cit][Pen][AEF][2Nal][αMeK]K(Ac)N[Aib][dR]-NH2
modifications: disulfide 1-6
SMILES: CC(=O)NCCCC[C@H](NC(=O)[C@](C)(CCCCN)NC(=O)[C@H](Cc1ccc2ccccc2c1)NC(=O)[C@H](Cc1ccc(OCCN)cc1)NC(=O)[C@H]1NC(=O)[C@H](CCCNC(N)=O)NC(=O)[C@H](Cc2c[nH]c3c(C)cccc23)NC(=O)[C@H]([C@@H](C)O)NC(=O)[C@H](CC(N)=O)NC(=O)[C@@H](NC(C)=O)C(C)(C)SSC1(C)C)C(=O)N[C@@H](CC(N)=O)C(=O)NC(C)(C)C(=O)N[C@H](CCCNC(=N)N)C(N)=O
B3: SEQ ID NO: 347 (peptide)
peptide: Ac-[Pen]NT[Trp(7-Me)][Cit][Pen][AEF][2Nal][αMeK]K(Ac)N[Aib][dY]-NH2
modifications: disulfide 1-6
SMILES: CC(=O)NCCCC[C@H](NC(=O)[C@](C)(CCCCN)NC(=O)[C@H](Cc1ccc2ccccc2c1)NC(=O)[C@H](Cc1ccc(OCCN)cc1)NC(=O)[C@H]1NC(=O)[C@H](CCCNC(N)=O)NC(=O)[C@H](Cc2c[nH]c3c(C)cccc23)NC(=O)[C@H]([C@@H](C)O)NC(=O)[C@H](CC(N)=O)NC(=O)[C@@H](NC(C)=O)C(C)(C)SSC1(C)C)C(=O)N[C@@H](CC(N)=O)C(=O)NC(C)(C)C(=O)N[C@H](Cc1ccc(O)cc1)C(N)=O
B4: SEQ ID NO: 220 (peptide)
peptide: XNTXQXXXXGPX
modifications: Ac-[Pen]-NT-[W(7-Me)]-Q-[Pen]-Phe[4-(2-aminoethoxy)]-[2-Nal]-[a-MeLeu]-G-[(D)Pro]-[bA]-NH2; Pen-Pen disulfide
B5: SEQ ID NO: 341 (peptide)
peptide: Ac-[Pen]NT[Trp(7-Me)][Cit][Pen][AEF][2Nal][αMeK]K(Ac)N[Aib]G-NH2
modifications: disulfide 1-6
SMILES: CC(=O)NCCCC[C@H](NC(=O)[C@](C)(CCCCN)NC(=O)[C@H](Cc1ccc2ccccc2c1)NC(=O)[C@H](Cc1ccc(OCCN)cc1)NC(=O)[C@H]1NC(=O)[C@H](CCCNC(N)=O)NC(=O)[C@H](Cc2c[nH]c3c(C)cccc23)NC(=O)[C@H]([C@@H](C)O)NC(=O)[C@H](CC(N)=O)NC(=O)[C@@H](NC(C)=O)C(C)(C)SSC1(C)C)C(=O)N[C@@H](CC(N)=O)C(=O)NC(C)(C)C(=O)NCC(N)=O
B6: SEQ ID NO: 344 (peptide)
peptide: Ac-[Pen]NT[Trp(7-Me)][Cit][Pen][AEF][2Nal][αMeK]K(Ac)N[Aib][dK]-NH2
modifications: disulfide 1-6
SMILES: CC(=O)NCCCC[C@H](NC(=O)[C@](C)(CCCCN)NC(=O)[C@H](Cc1ccc2ccccc2c1)NC(=O)[C@H](Cc1ccc(OCCN)cc1)NC(=O)[C@H]1NC(=O)[C@H](CCCNC(N)=O)NC(=O)[C@H](Cc2c[nH]c3c(C)cccc23)NC(=O)[C@H]([C@@H](C)O)NC(=O)[C@H](CC(N)=O)NC(=O)[C@@H](NC(C)=O)C(C)(C)SSC1(C)C)C(=O)N[C@@H](CC(N)=O)C(=O)NC(C)(C)C(=O)N[C@H](CCCCN)C(N)=O
B7: SEQ ID NO: 224 (peptide)
peptide: XNTXQXXXXKXX
modifications: Ac-[Pen]-NT-[W(7-Me)]-Q-[Pen]-Phe[4-(2-aminoethoxy)]-[2-Nal]-[a-MeLeu]-[Lys(Ac)]-[Sarc]-[bA]-NH2; Pen-Pen disulfide
B8: SEQ ID NO: 320 (peptide)
peptide: XNTXXXXXXKNL
modifications: Ac-[Pen]-N-T-[W(7-Me)]-[Lys(Gly)]-[Pen]-Phe[4-(2-aminoethoxy)]-[2-Nal]-[a-MeLys]-[Lys(Ac)]-N-[(D)Leu]-NH2; Pen-Pen disulfide
B9: SEQ ID NO: 342 (peptide)
peptide: Ac-[Pen]NT[Trp(7-Me)][Cit][Pen][AEF][2Nal][αMeK]K(Ac)N[Aib]A-NH2
modifications: disulfide 1-6
SMILES: CC(=O)NCCCC[C@H](NC(=O)[C@](C)(CCCCN)NC(=O)[C@H](Cc1ccc2ccccc2c1)NC(=O)[C@H](Cc1ccc(OCCN)cc1)NC(=O)[C@H]1NC(=O)[C@H](CCCNC(N)=O)NC(=O)[C@H](Cc2c[nH]c3c(C)cccc23)NC(=O)[C@H]([C@@H](C)O)NC(=O)[C@H](CC(N)=O)NC(=O)[C@@H](NC(C)=O)C(C)(C)SSC1(C)C)C(=O)N[C@@H](CC(N)=O)C(=O)NC(C)(C)C(=O)N[C@@H](C)C(N)=O
B10: SEQ ID NO: 319 (peptide)
peptide: XNTXXXXXXKNL
modifications: Ac-[Pen]-N-T-[W(7-Me)]-[Lys(trifluoropropionic)]-[Pen]-Phe[4-(2-aminoethoxy)]-[2-Nal]-[a-MeLys]-[Lys(Ac)]-N-[(D)Leu]-NH2; Pen-Pen disulfide
B11: SEQ ID NO: 211 (peptide)
peptide: XNTXQXXXXKPX
modifications: Ac-[Pen]-NT-[W(7-Me)]-Q-[Pen]-Phe[4-(2-aminoethoxy)]-[2-Nal]-[a-MeLeu]-[Lys(Ac)]-P-[bA]-NH2; Pen-Pen disulfide
B12: SEQ ID NO: 300 (peptide)
peptide: Ac-[Pen]NT[Trp(7-OMe)][Cit][Pen][AEF][2Nal][αMeK]K(Ac)N[dK]-NH2
modifications: disulfide 1-6
SMILES: COc1cccc2c(C[C@@H]3NC(=O)[C@H]([C@@H](C)O)NC(=O)[C@H](CC(N)=O)NC(=O)[C@@H](NC(C)=O)C(C)(C)SSC(C)(C)[C@@H](C(=O)N[C@@H](Cc4ccc(OCCN)cc4)C(=O)N[C@@H](Cc4ccc5ccccc5c4)C(=O)N[C@@](C)(CCCCN)C(=O)N[C@@H](CCCCNC(C)=O)C(=O)N[C@@H](CC(N)=O)C(=O)N[C@H](CCCCN)C(N)=O)NC(=O)[C@H](CCCNC(N)=O)NC3=O)c[nH]c12
B13: SEQ ID NO: 340 (peptide)
peptide: Ac-[Pen]NT[Trp(7-Me)][Cit][Pen][AEF][2Nal][αMeK]K(Ac)N[Aib][βAla]-NH2
modifications: disulfide 1-6
SMILES: CC(=O)NCCCC[C@H](NC(=O)[C@](C)(CCCCN)NC(=O)[C@H](Cc1ccc2ccccc2c1)NC(=O)[C@H](Cc1ccc(OCCN)cc1)NC(=O)[C@H]1NC(=O)[C@H](CCCNC(N)=O)NC(=O)[C@H](Cc2c[nH]c3c(C)cccc23)NC(=O)[C@H]([C@@H](C)O)NC(=O)[C@H](CC(N)=O)NC(=O)[C@@H](NC(C)=O)C(C)(C)SSC1(C)C)C(=O)N[C@@H](CC(N)=O)C(=O)NC(C)(C)C(=O)NCCC(N)=O
B14: SEQ ID NO: 346 (peptide)
peptide: Ac-[Pen]NT[Trp(7-Me)][Cit][Pen][AEF][2Nal][αMeK]K(Ac)N[Aib][dF]-NH2
modifications: disulfide 1-6
SMILES: CC(=O)NCCCC[C@H](NC(=O)[C@](C)(CCCCN)NC(=O)[C@H](Cc1ccc2ccccc2c1)NC(=O)[C@H](Cc1ccc(OCCN)cc1)NC(=O)[C@H]1NC(=O)[C@H](CCCNC(N)=O)NC(=O)[C@H](Cc2c[nH]c3c(C)cccc23)NC(=O)[C@H]([C@@H](C)O)NC(=O)[C@H](CC(N)=O)NC(=O)[C@@H](NC(C)=O)C(C)(C)SSC1(C)C)C(=O)N[C@@H](CC(N)=O)C(=O)NC(C)(C)C(=O)N[C@H](Cc1ccccc1)C(N)=O

target: T1, IL-23R (human, UniProt Q5VWK5 24-629); experiment: cell-based or functional assay
T1 sequence (looked up): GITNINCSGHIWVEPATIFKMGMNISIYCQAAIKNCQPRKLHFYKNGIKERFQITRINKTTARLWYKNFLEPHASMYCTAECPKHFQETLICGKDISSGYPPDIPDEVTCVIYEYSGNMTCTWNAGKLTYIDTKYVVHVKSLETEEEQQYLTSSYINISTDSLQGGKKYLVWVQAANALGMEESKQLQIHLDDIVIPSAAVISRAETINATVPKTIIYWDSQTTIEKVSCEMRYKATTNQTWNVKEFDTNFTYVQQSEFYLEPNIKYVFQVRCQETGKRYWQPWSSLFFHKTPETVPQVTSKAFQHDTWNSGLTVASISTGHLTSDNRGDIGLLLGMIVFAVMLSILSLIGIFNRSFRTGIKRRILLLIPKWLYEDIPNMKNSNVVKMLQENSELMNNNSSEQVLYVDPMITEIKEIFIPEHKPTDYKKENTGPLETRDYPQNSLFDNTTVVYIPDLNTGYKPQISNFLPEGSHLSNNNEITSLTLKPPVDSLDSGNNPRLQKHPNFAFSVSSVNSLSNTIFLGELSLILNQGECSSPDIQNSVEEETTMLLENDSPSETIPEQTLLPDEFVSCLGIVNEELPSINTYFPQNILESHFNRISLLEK

Binder	pStat3 HTRF (nM) IC50
B1	< 1 nM
B2	< 1 nM
B3	< 1 nM
B4	> 100 nM
B5	< 1 nM
B6	< 1 nM
B7	> 100 nM
B8	< 1 nM
B9	< 1 nM
B10	< 1 nM
B11	> 100 nM
B12	> 100 nM
B13	< 1 nM
B14	< 1 nM

From patent US20260116921A1, “PEPTIDE INHIBITORS OF INTERLEUKIN-23 RECEPTOR AND THEIR USE TO TREAT INFLAMMATORY DISEASES” (priority 2018, published 2026)
